Publication PMC9191654

Key:
[1] = target: anti-OX40 antibody 1A7 with the Fc hexamer variant E345R/E430G/S440Y (RGY); test: SEC
[2] = target: anti-OX40 antibody 1A7 with the κ3-11(49–61) light chain graft and the Fc hexamer variant E345R/E430G/S440Y (RGY); test: SEC

stoichiometry N [1] | stoichiometry N [2] | Binder
6 |  | anti-OX40 antibody 1A7 with the Fc hexamer variant E345R/E430G/S440Y (RGY) (antibody, V domains shown) VH: EVQLVQSGAEVKKPGASVKVSCKASGYTFTDSYMSWVRQAPGQGLEWIGDMYPDNGDSSYNQKFRERVTITRDTSTSTAYLELSSLRSEDTAVYYCVLAPRWYFSVWGQGTLVTVSS VL: DIQMTQSPSSLSASVGDRVTITCRASQDISNYLNWYQQKPGKAPKLLIYYTSRLRSGVPSRFSGSGSGTDFTLTISSLQPEDFATYYCQQGHTLPPTFGQGTKVEIK
 | 6 | anti-OX40 antibody 1A7 with the κ3-11(49–61) light chain graft and the Fc hexamer variant E345R/E430G/S440Y (RGY) (antibody, V domains shown) VH: EVQLVQSGAEVKKPGASVKVSCKASGYTFTDSYMSWVRQAPGQGLEWIGDMYPDNGDSSYNQKFRERVTITRDTSTSTAYLELSSLRSEDTAVYYCVLAPRWYFSVWGQGTLVTVSS VL: DIQMTQSPSSLSASVGDRVTITCRASQDISNYLNWYQQKPGKAPKLLIYDASNRATGIPARFSGSGSGTDFTLTISSLQPEDFATYYCQQGHTLPPTFGQGTKVEIK
